Experimental data from the nanobody polyreactivity screen of Harvey et al. (2022).

Assay: yeast display, Sf9 membrane polyspecificity reagent, FACS + sequencing; frameworks hold sequencing errors
Summary of the method: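 Nanobodies from a synthetic yeast display library (Saccharomyces cerevisiae BJ5465), induced 36–48 hours with galactose, were stained 1 hour at 4 °C with 10% biotinylated, detergent-solubilized Sf9 membrane reagent, enriched on streptavidin microbeads, then FACS-sorted. Anti-HA (expression) and streptavidin (reagent binding) fluorescence set low and high (top ~1%) gates. Polyreactivity labels come from the gate of origin. Genes were colony-PCR amplified, MiSeq 2 × 250 sequenced and filtered by CDR length.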

Row | Sequence | polyreactivity (PSR sort gate)
1 | QVQLVESGGGLVQAGGSLRLSCAASGIIFYTNAMGWYRQAPGKEREFVAAINTSGGITYYADSVKGRFTISRDNATNTVYLQMNSLKPEDTAVYYCAKDRRYRPPYGYEIEYAYWGQGTQVTVAS | low polyreactivity
2 | QVQLVESGGGLVQAGGSLRLSCAASGIIFYVYALGWYRQAPGKERELVAAISYTSSTYADSVKGLFTISRDNAKNTVYLQMNSLKPEDTAVYYCNTDYSDGYPAFDFWGQGTQVTVSS | low polyreactivity
3 | QVQLVESGGGLVQAGGSLRLSCAASGIIFYVYAMGWYRQAPGKERELVATITRRDDSTYYADSVKGRFTISRDNAKNTVYLQMNSLKPEDTAVSYCNADFWLLSEYDYWGQGTQVTVSS | low polyreactivity
4 | QVQLVESGGGLVQAGGSLRLSCAASGIIFYYNAMGWYRPAPGNERELVAAISGRGGSTYYADSVKGRVTISRDNAKNTVYLQMTSLKPEDTAVYYCAAARVGSRYGYDYWGQGTQGTVSS | low polyreactivity
5 | QVQLVESGGGLVQAGGSLRLSCAASGIIFYYNAMGWYRQAPGKERELVASIRWRGGSTYYADSVKGRFTISRDNAKNTVYLQMNSLKPEDTAVYYCNVVKYVYIYSYWEYYYWGQGTQVTVSS | low polyreactivity
6 | QVQLVESGGGLVQAGGSLRLSCAASGIIFYYYAKGWYRQSPGKERELVAAISSSGGRTRYADSVKGRFTISRDNAKNTVFLQMNSLKPEDSAVYYCAAEFIRGYGESYDYWGQGTQVTVSS | low polyreactivity
7 | QVQLVESGGGLVQAGGSLRLSCAASGIIFYYYAMGWYRQAPGKERELVAAIRSGGSTNYADSVKGRFTISRDNAKNTVYLQMNSLKPEDTAVYYCATRHDYLRAHYGYGSWGQGTQVTVSS | low polyreactivity
8 | QVQLVESGGGLVQAGGSLRLSCAASGIIFYYYAMGWYRQAPGKERELVAAISTSGGRTYYADSVKGRFTISRDNAKSTVYLQMNSLKPEDTAVYYCAKDFWYVTGGWSSGLDYWGQGTQVTVSS | low polyreactivity
9 | QVQLVESGGGLVQAGGSLRLSCAASGIIFYYYGMGWYRQAPGKEREFVAAISTSGGNTYYADSVKGRFTISRDNAKNTVYLQMNSLKPEDTAVYYCAADDLAWGDAGVDYWGQGTEVTVSS | low polyreactivity
10 | QVQLVESGGGLVQAGGSLRLSCAASGIIFYYYGMGWYRQAPGKEREFVAAISTSGGNTYYADSVKGRFTISRDNAKNTVYLQMNSLKPEDTAVYYCAADDWPWGDAGVDYWGQGTQVTVSS | low polyreactivity
11 | QVQLVESGGGLVQAGGSLRLSCAASGIIIGANAMGWYRQAPWKERELLAAITSGGSTYYADSVKGRFTISRDNAKNTVYLQMNSLKPEDTAVYYCAADVFWLYSFTIYDYWGQGTQVTVSS | high polyreactivity
12 | QVQLVESGGGLVQAGGSLRLSCAASGIIIGNNAMGWYRQAPGKERELVAAISRRGGSTYYADSVKGRFTISRDNAKNTVYLQMNSLKPEDTAVYYCAADIYRYNSYDYWGQGTQVTVSS | low polyreactivity
13 | QVQLVESGGGLVQAGGSLRLSCAASGIIIVYNVMGWYRQAPGKERELVAAITNGDSTNYADSVKGRFTISRDNAKNTVYLQMNSLKPEDTAVYYCNVEGGYPLKYDYWGQGTQVSVSS | low polyreactivity
14 | QVQLVESGGGLVQAGGSLRLSCAASGIIIWGNAMAWYRQAPGKERELVAAISSSSGSTYYADSVKGRFTISRDNAKNTVYLQMNRLKPVDTAVYYCAVDTPRSYRAQGAYYYWGQGTQVTVSS | low polyreactivity
15 | QVQLVESGGGLVQAGGSLRLSCAASGIIIWYNTMGWYRQAPGKEREFVARISRRVGSTYYADSVKGRFTISRDNAKNTVYLQMNSLKPEDTAVYYCAASPYQVRYQWGNRLDYWGQGTQVTVSS | high polyreactivity
16 | QVQLVESGGGLVQAGGSLRLSCAASGIIIYYNTMGWYRQAPGKEREFVDAISNSGGRTYYADSVKGRFTISRDNAKNTVYLQMNSLKPEDTADYYCAATYRQYSRSPWYYYCGQGTQVTVSS | high polyreactivity
17 | QVQLVESGGGLVQAGGSLRLSCAASGIILDEYAMGVYSQAPGKERELVAAITWIGGSTYADSVKGRFTISRDNAKNTVYLQMNRLKPEDTAVYYCAADYPSLFVCYGYGWYNYDYWGQGTQVTVSS | low polyreactivity
